For one protein, K0.5 results are on record in article PMC12718255, “Quantitative assessment of porin-mediated solute transport in biomimetic membranes” (Applied Microbiology and Biotechnology, 2025).

Substrate in the data set: Oc1ccc(Cc2nc3c(Cc4ccccc4)nc(-c4ccc(O)cc4)cn3c2O)cc1
In words: luminescence, extrapolated peak intensity, Hill fit. The class given is biochemical, Gaussia princeps (in: crustaceans). The following applies: free GLuc 0.05 µM, PBS, O2 as co-substrate, 0.1-30 µM CLZ.

B1: Gaussia luciferase (GLuc) (Gaussia princeps (in: crustaceans); M127L/M60L) (protein)
chain: KPTENNEDFNIVAVASNFATTDLDADRGKLPGKKLPLEVLKELEANARKAGCTRGCLICLSHIKCTPKMKKFIPGRCHTYEGDKESAQGGIGEAIVDIPEIPGFKDLEPLEQFIAQVDLCVDCTTGCLKGLANVQCSDLLKKWLPQRCATFASKIQGQVDKIKGAGGD
Turning to B1, the K0.5 was 9.8 (95% CI [6.2 µM, 43.1 µM]) µM.
